From patent US20090004675A1, “Method of Identifying Compounds for Bacterial Growth Modulation” (priority 2004, published 2009) come the findings set out here.

Test [1] deals with Streptococcus pyogenes β clamp. In words: fluorescence anisotropy; labeled peptide. The settings on record: chains peptide; modification not given.
Test [2] has as its target Escherichia coli β clamp (beta subunit of DNA polymerase III holoenzyme), P0A988. In words: fluorescence (fluorophore-labeled β titrated with peptide); ±0.4; labeled β. The settings on record: chains peptide; modification not given.

B1: C-terminal peptide corresponding to Staphylococcus aureus Pol C (peptide)
chain: DELGSLPNLPDKAQLSIFDM
The molecule B1 came in with a Kd in test [1] of 14000 nM.

B2: 20 mer peptide corresponding to the C-terminal 20 residues of E. coli Pol III α subunit (peptide)
chain: RLLNDLRGLIGSEQVELEFD
As to B2, the Kd in test [2] worked out at 2700 nM.

B3: Peptide corresponding to C-terminal residues of Streptococcus pyogenes Pol C (peptide)
chain: DEMGILGNMPEDNQLSLFDDFF
The molecule B3 displayed a Kd in test [1] of 2200 nM.

As usually defined, the Kd is the free concentration of one partner at which half of the binding sites on the other are occupied at equilibrium, for simple one-to-one binding. A high value points to weaker binding.
